In the data set the test system is human recombinant CXCL10 (1-77).
human recombinant CXCL10 (1-77), sequence (chain, as listed by the source): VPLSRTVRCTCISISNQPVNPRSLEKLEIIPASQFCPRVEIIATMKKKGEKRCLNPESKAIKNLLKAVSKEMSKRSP

On to active MMP2, for which the “cleavage of CXCL10 (SELDI-TOF mass analysis)” value is “MMP2 did not alter the mass of CXCL10”.
For the substance active MMP9, the “cleavage of CXCL10 (SELDI-TOF mass analysis)” value is “MMP9 cleaved 9 amino acids from CXCL10”.
In the case of recombinant DPP4, the “molecular weight difference after in vitro digestion (SELDI-TOF mass spectrometry)” value is “The molecular weight difference (red number) between CXCL10 (1-77) and CXCL10 (3-77) is 0.2 KDa, corresponding to a 2 amino-acid difference”.

The values are drawn from patent publication US20100040577.
